{"source": "paper PMC4376459", "about": "“CXCR3 antagonist VUF10085 binds to an intrahelical site distinct from that of the broad spectrum antagonist TAK-779” (British Journal of Pharmacology, 2015)", "key": {"[1]": {"system": "six 'loss of charge' CXCR3 mutants", "experiment": "Chemotaxis assay, panel of charged extracellular residue mutants", "type": "cell-based, human", "details": "30 nM CXCL11, 100 μM TAK-779, versus WT", "protocol": "(§1) Assays of chemotactic responsiveness were carried out as previously described (Vaidehi et al., [2009]) using 96-well ChemoTx® plates with 5 μm pores (Neuroprobe, Gaithersburg, MD, USA). Migrating cells were detected by the use of CellTiter Glo® Dye (Promega, Southampton, UK) and resulting luminescence measured using a TopCount scintillation counter (PerkinElmer, Waltham, MA, USA). Basal migration of cells to buffer alone was subtracted from the resulting data, with individual results expressed as a percentage of the total cells applied to the filter. In all experiments, each data point was assayed in duplicate. In every experiment, cells transiently expressing WT CXCR3 were used as a positive control.\nWe have previously used an alternative panel of six ‘loss of charge’ CXCR3 mutants to determine the counterion for a negatively charged small molecule CXCR3 agonist (Nedjai et al., [2011]). Although these acidic residues lay outside our initially molecular modelling of the TAK-779:CXCR3 interaction, we tested the hypothesis that one or more of these acidic residues may contribute to TAK-779 binding. […]\nFigure 6 Mutation of charged extracellular residues has no effect upon the ability of TAK-779 to inhibit chemotaxis in response to CXCL11. Migration of a panel of CXCR3 transfectants to 30 nM CXCL11 in the presence of 100 μM TAK-779 was determined."}, "CXCR3 F207A": {"target": "T1, CXCR3 F207A (Homo sapiens, UniProt P49682, F207A)", "T1 construct": "expressed in transfected cells; host or cells: murine pre-B cell line L1.2, transient transfection", "T1 sequence (P49682 1-368 F207A)": "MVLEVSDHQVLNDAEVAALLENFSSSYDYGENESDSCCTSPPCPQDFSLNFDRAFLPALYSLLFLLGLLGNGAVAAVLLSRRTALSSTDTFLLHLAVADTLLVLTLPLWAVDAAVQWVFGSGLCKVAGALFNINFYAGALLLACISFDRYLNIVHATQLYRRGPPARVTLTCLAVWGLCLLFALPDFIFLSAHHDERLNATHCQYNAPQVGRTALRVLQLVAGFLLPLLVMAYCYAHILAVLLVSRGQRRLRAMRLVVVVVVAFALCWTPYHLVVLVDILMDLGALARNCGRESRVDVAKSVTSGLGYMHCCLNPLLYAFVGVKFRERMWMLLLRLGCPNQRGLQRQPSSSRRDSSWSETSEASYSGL", "experiment": "Chemotaxis assay, L1.2 transfectants migrating to CXCL11", "type": "cell-based", "protocol": "(§2) A previously described pcDNA3 plasmid containing human wild type (WT) CXCR3 cDNA with an HA epitope tag encoded at the N terminus (Meiser et al., [2008]) was used as a template for the generation of point mutants by PCR using the QuikChange II site-directed mutagenesis kit (Stratagene, Amsterdam, the Netherlands). All constructs were verified by DNA sequencing (Eurofins MWG Operon, Ebersberg, Germany) before use. L1.2 cells were transiently transfected by electroporation with 1 μg of vector DNA/10^6 cells at 330V, 975μF and incubated overnight in medium supplemented with 10 mM of sodium butyrate to enhance gene expression.\nas §1"}, "CXCR3 N132A": {"target": "T2, CXCR3 N132A (Homo sapiens, UniProt P49682, N132A)", "T2 construct": "expressed in transfected cells; host or cells: murine pre-B cell line L1.2, transient transfection", "T2 sequence (P49682 1-368 N132A)": "T1 sequence (P49682 1-368 F207A) with N132A, A207F", "experiment": "Chemotaxis assay, L1.2 transfectants migrating to CXCL11", "type": "cell-based", "protocol": "as §2, §1"}, "CXCR3 V275A": {"target": "T3, CXCR3 V275A (Homo sapiens, UniProt P49682, V275A)", "T3 construct": "expressed in transfected cells; host or cells: murine pre-B cell line L1.2, transient transfection", "T3 sequence (P49682 1-368 V275A)": "T1 sequence (P49682 1-368 F207A) with A207F, V275A", "experiment": "Chemotaxis assay, L1.2 transfectants migrating to CXCL11", "type": "cell-based", "protocol": "as §2, §1"}, "CXCR3 Y205A": {"target": "T4, CXCR3 Y205A (Homo sapiens, UniProt P49682, Y205A)", "T4 construct": "expressed in transfected cells; host or cells: murine pre-B cell line L1.2, transient transfection", "T4 sequence (P49682 1-368 Y205A)": "T1 sequence (P49682 1-368 F207A) with Y205A, A207F", "experiment": "Chemotaxis assay, L1.2 transfectants migrating to CXCL11", "type": "cell-based", "protocol": "as §2, §1"}, "CXCR3 Y271A": {"target": "T5, CXCR3 Y271A (Homo sapiens, UniProt P49682, Y271A)", "T5 construct": "expressed in transfected cells; host or cells: murine pre-B cell line L1.2, transient transfection", "T5 sequence (P49682 1-368 Y271A)": "T1 sequence (P49682 1-368 F207A) with A207F, Y271A", "experiment": "Chemotaxis assay, L1.2 transfectants migrating to CXCL11", "type": "cell-based", "protocol": "as §2, §1"}}, "note": "Positions count from the first letter of the chain named."}
{"compound": "Cc1ccc(-c2ccc3c(c2)C=C(C(=O)Nc2ccc(C[N+](C)(C)C4CCOCC4)cc2)CCC3)cc1.[Cl-]", "note": "[TAK-779, N,N-dimethyl-N-[4-[[[2-(4-methylphenyl)-6,7-dihydro-5H-benzocyclohepten-8-yl]-carbonyl]amino]benzyl] tetrahydro-2H-pyran-4-aminium chloride]", "values": [{"measurement": "ability to inhibit migration to CXCL11", "setting": "[1]", "result": "not reduced"}]}
{"compound": "CXCL11: recombinant human chemokine, CXCR3 agonist, purchased from PeproTech", "values": [{"measurement": "% of WT chemotaxis to 30 nM CXCL11 (mean ± SEM)", "setting": "CXCR3 F207A", "result": "0.8 ± 0.8", "unit": "%"}, {"measurement": "% of WT chemotaxis to 30 nM CXCL11 (mean ± SEM)", "setting": "CXCR3 N132A", "result": "0.7 ± 0.5", "unit": "%"}, {"measurement": "% of WT chemotaxis to 30 nM CXCL11 (mean ± SEM)", "setting": "CXCR3 V275A", "result": "52.9 ± 8.2", "unit": "%"}, {"measurement": "% of WT chemotaxis to 30 nM CXCL11 (mean ± SEM)", "setting": "CXCR3 Y205A", "result": "35.5 ± 21.5", "unit": "%"}, {"measurement": "% of WT chemotaxis to 30 nM CXCL11 (mean ± SEM)", "setting": "CXCR3 Y271A", "result": "1.0 ± 0.6", "unit": "%"}]}
